This note sets out measurements from paper PMC6555819, “Comprehensive study of nuclear receptor DNA binding provides a revised framework for understanding receptor specificity”.

The chains are these.
B1: NRC3_random_hg19_235_o1 (dsDNA)
DNA 1: GCGCTGGGAGGCAACTGCCATTGGCATGCCATGCCAGCGATTGACAGCGTAGAATGAAGG
DNA 2: CCTTCATTCTACGCTGTCAATCGCTGGCATGGCATGCCAATGGCAGTTGCCTCCCAGCGC
B2: NRC3_wobSeed63_DR2_G11C_o1 (dsDNA)
DNA 1: GCCGAACTAGCTCACCAGGACAGTGAAGAGGTTGGAGCGATTGACAGCGTAGAATGAAGG
DNA 2: CCTTCATTCTACGCTGTCAATCGCTCCAACCTCTTCACTGTCCTGGTGAGCTAGTTCGGC
B3: NRC3_wobSeed76_DR3_A18C_o1 (dsDNA)
DNA 1: GCCCTACTGGGCCAAAACGGTCATTGATGCCGATAAGCGATTGACAGCGTAGAATGAAGG
DNA 2: CCTTCATTCTACGCTGTCAATCGCTTATCGGCATCAATGACCGTTTTGGCCCAGTAGGGC
B4: NRC3_random_hg19_211_o1 (dsDNA)
DNA 1: GCATCACTATTCCCAACTTCAGGAGTAACCAGTATTGCGATTGACAGCGTAGAATGAAGG
DNA 2: CCTTCATTCTACGCTGTCAATCGCAATACTGGTTACTCCTGAAGTTGGGAATAGTGATGC
B5: NRC3_wobSeed72_DR2_G11C_o1 (dsDNA)
DNA 1: GCTCGAGTAGCTTACGGGGGCATTCAGGGATGAAGAGCGATTGACAGCGTAGAATGAAGG
DNA 2: CCTTCATTCTACGCTGTCAATCGCTCTTCATCCCTGAATGCCCCCGTAAGCTACTCGAGC
B6: NRC3_random_hg19_181_o1 (dsDNA)
DNA 1: GCGCAGCATTTGTGTGCATGTATGCTGTGTGTATGCGCGATTGACAGCGTAGAATGAAGG
DNA 2: CCTTCATTCTACGCTGTCAATCGCGCATACACACAGCATACATGCACACAAATGCTGCGC
B7: NRC3_random_hg19_88_o1 (dsDNA)
DNA 1: GCAGATTGCTGGCCAACTGCTCCTGATCCATTACTAGCGATTGACAGCGTAGAATGAAGG
DNA 2: CCTTCATTCTACGCTGTCAATCGCTAGTAATGGATCAGGAGCAGTTGGCCAGCAATCTGC
B8: NRC3_wobSeed25_DR1_A23G_o1 (dsDNA)
DNA 1: GCCAAACTAGGTCAAAGGTCAAGGTCGAGCCAACCAGCGATTGACAGCGTAGAATGAAGG
DNA 2: CCTTCATTCTACGCTGTCAATCGCTGGTTGGCTCGACCTTGACCTTTGACCTAGTTTGGC
B9: NRC3_wobSeed25_DR1_A22G_o1 (dsDNA)
DNA 1: GCCAAACTAGGTCAAAGGTCAGAGTCGAGCCAACCAGCGATTGACAGCGTAGAATGAAGG
DNA 2: CCTTCATTCTACGCTGTCAATCGCTGGTTGGCTCGACTCTGACCTTTGACCTAGTTTGGC
B10: NRC3_random_hg19_453_o1 (dsDNA)
DNA 1: GCATGATCATGGCTCACTGCAGCCTCGACCTCCAGAGCGATTGACAGCGTAGAATGAAGG
DNA 2: CCTTCATTCTACGCTGTCAATCGCTCTGGAGGTCGAGGCTGCAGTGAGCCATGATCATGC
B11: NRC3_random_hg19_493_o1 (dsDNA)
DNA 1: GCGCCTAGCAGTCTATACAATTCTGAAGGATGCACCGCGATTGACAGCGTAGAATGAAGG
DNA 2: CCTTCATTCTACGCTGTCAATCGCGGTGCATCCTTCAGAATTGTATAGACTGCTAGGCGC
B12: NRC3_wobSeed29_DR1_T5A_o1 (dsDNA)
DNA 1: GCGCATACGGGTCAAAGGTTATAGCATGAATAGAATGCGATTGACAGCGTAGAATGAAGG
DNA 2: CCTTCATTCTACGCTGTCAATCGCATTCTATTCATGCTATAACCTTTGACCCGTATGCGC
B13: NRC3_wobSeed29_DR1_A23G_o1 (dsDNA)
DNA 1: GCGCTTACGGGTCAAAGGTTATGGCATGAATAGAATGCGATTGACAGCGTAGAATGAAGG
DNA 2: CCTTCATTCTACGCTGTCAATCGCATTCTATTCATGCCATAACCTTTGACCCGTAAGCGC
B14: NRC3_wobSeed31_DR1_A13G_o1 (dsDNA)
DNA 1: GCTCATATAGGTGAAAGGTGAAAGTCGGTGTGGTAAGCGATTGACAGCGTAGAATGAAGG
DNA 2: CCTTCATTCTACGCTGTCAATCGCTTACCACACCGACTTTCACCTTTCACCTATATGAGC
B15: NRC3_wobSeed4_DR0_G17C_o1 (dsDNA)
DNA 1: GCCCTACTGGGCCAAGCTCATTGATCAGTCAAAGCAGCGATTGACAGCGTAGAATGAAGG
DNA 2: CCTTCATTCTACGCTGTCAATCGCTGCTTTGACTGATCAATGAGCTTGGCCCAGTAGGGC
B16: NRC3_random_hg19_305_o1 (dsDNA)
DNA 1: GCGACTGCACTCCAGCCTGGGCAATAGAGTGAGACTGCGATTGACAGCGTAGAATGAAGG
DNA 2: CCTTCATTCTACGCTGTCAATCGCAGTCTCACTCTATTGCCCAGGCTGGAGTGCAGTCGC
B17: NRC3_wobSeed36_DR1_C4G_o1 (dsDNA)
DNA 1: GCCGGACTGGGGCAAAGGTTACCATACTCAGTACGAGCGATTGACAGCGTAGAATGAAGG
DNA 2: CCTTCATTCTACGCTGTCAATCGCTCGTACTGAGTATGGTAACCTTTGCCCCAGTCCGGC
B18: NRC3_wobSeed36_DR1_G5C_o1 (dsDNA)
DNA 1: GCCCCACTGGGGCAAAGGTTACCATACTCAGTACGAGCGATTGACAGCGTAGAATGAAGG
DNA 2: CCTTCATTCTACGCTGTCAATCGCTCGTACTGAGTATGGTAACCTTTGCCCCAGTGGGGC
B19: NRC3_wobSeed36_DR1_C23G_o1 (dsDNA)
DNA 1: GCCCGACTGGGGCAAAGGTTACGATACTCAGTACGAGCGATTGACAGCGTAGAATGAAGG
DNA 2: CCTTCATTCTACGCTGTCAATCGCTCGTACTGAGTATCGTAACCTTTGCCCCAGTCGGGC
B20: NRC3_random_hg19_220_o1 (dsDNA)
DNA 1: GCTTGGTTGCAAGCAATACAAAGCAACTCTTGCTAAGCGATTGACAGCGTAGAATGAAGG
DNA 2: CCTTCATTCTACGCTGTCAATCGCTTAGCAAGAGTTGCTTTGTATTGCTTGCAACCAAGC
B21: NRC3_random_hg19_481_o1 (dsDNA)
DNA 1: GCCCTTCTTAGTATCTGGGACAACAGGTGTGTGCTAGCGATTGACAGCGTAGAATGAAGG
DNA 2: CCTTCATTCTACGCTGTCAATCGCTAGCACACACCTGTTGTCCCAGATACTAAGAAGGGC
B22: NRC3_random_hg19_85_o1 (dsDNA)
DNA 1: GCTGGCTGGCACCTGTGTTCCAACAACTTGAGAGAGGCGATTGACAGCGTAGAATGAAGG
DNA 2: CCTTCATTCTACGCTGTCAATCGCCTCTCTCAAGTTGTTGGAACACAGGTGCCAGCCAGC
B23: NRC3_wobSeed32_DR1_G18C_o1 (dsDNA)
DNA 1: GCTCTTGTAGATCAAAGCTTAAGAAAGCCGAAGCCTGCGATTGACAGCGTAGAATGAAGG
DNA 2: CCTTCATTCTACGCTGTCAATCGCAGGCTTCGGCTTTCTTAAGCTTTGATCTACAAGAGC
B24: NRC3_wobSeed33_DR1_A13C_o1 (dsDNA)
DNA 1: GCATCTCTAGGTCAAAGTTCAGTGAATCCCGAGGATGCGATTGACAGCGTAGAATGAAGG
DNA 2: CCTTCATTCTACGCTGTCAATCGCATCCTCGGGATTCACTGAACTTTGACCTAGAGATGC
B25: NRC3_random_hg19_131_o1 (dsDNA)
DNA 1: GCTCCCTCAAGCTCTCTGAATCTCAGAGTCAGCATCGCGATTGACAGCGTAGAATGAAGG
DNA 2: CCTTCATTCTACGCTGTCAATCGCGATGCTGACTCTGAGATTCAGAGAGCTTGAGGGAGC
B26: NRC3_random_hg19_11_o1 (dsDNA)
DNA 1: GCTGAGTCAGAACCACCCAGCTAAGCCACCATCAAAGCGATTGACAGCGTAGAATGAAGG
DNA 2: CCTTCATTCTACGCTGTCAATCGCTTTGATGGTGGCTTAGCTGGGTGGTTCTGACTCAGC
B27: NRC3_random_hg19_164_o1 (dsDNA)
DNA 1: GCCATGAGGACCTGCAGCGCAATGACCTCCGAGGCAGCGATTGACAGCGTAGAATGAAGG
DNA 2: CCTTCATTCTACGCTGTCAATCGCTGCCTCGGAGGTCATTGCGCTGCAGGTCCTCATGGC
B28: NRC3_random_hg19_81_o1 (dsDNA)
DNA 1: GCGACTTTGTTGCCTAGGCTGGAATCTATCATGGCTGCGATTGACAGCGTAGAATGAAGG
DNA 2: CCTTCATTCTACGCTGTCAATCGCAGCCATGATAGATTCCAGCCTAGGCAACAAAGTCGC
B29: NRC3_wobSeed38_DR1_T12A_o1 (dsDNA)
DNA 1: GCCCTGCTAGGACAATGGTCAGCTAAAGCAGCTCGCGCGATTGACAGCGTAGAATGAAGG
DNA 2: CCTTCATTCTACGCTGTCAATCGCGCGAGCTGCTTTAGCTGACCATTGTCCTAGCAGGGC
B30: NRC3_wobSeed41_DR1_T23G_o1 (dsDNA)
DNA 1: GCATATGTAGGTTAAGGGTCATGCAGGTTGGTTCGCGCGATTGACAGCGTAGAATGAAGG
DNA 2: CCTTCATTCTACGCTGTCAATCGCGCGAACCAACCTGCATGACCCTTAACCTACATATGC
B31: NRC3_random_hg19_333_o1 (dsDNA)
DNA 1: GCATGCCTGTAATCCCAGCTACTTGGGAGGCTGAGAGCGATTGACAGCGTAGAATGAAGG
DNA 2: CCTTCATTCTACGCTGTCAATCGCTCTCAGCCTCCCAAGTAGCTGGGATTACAGGCATGC
B32: NRC3_random_hg19_118_o1 (dsDNA)
DNA 1: GCTTGTCACTTGTCATTCCTGCCAAGAGAGCTCTATGCGATTGACAGCGTAGAATGAAGG
DNA 2: CCTTCATTCTACGCTGTCAATCGCATAGAGCTCTCTTGGCAGGAATGACAAGTGACAAGC

The target in the data set is PPARg:RXRa (Homo sapiens, UniProt P37231;P19793 full;full). Put plainly: no ligand; PBM; 180 nM : 90 nM RXRa; PBS pH 7.4, 2% milk, 0.02% Triton X-100, 1 mM DTT, BSA, 0.4 mg/ml salmon testes DNA. Particulars: tags: His kept;His cleaved; copies: 1;1; label: surface-attached array probe.
Sequence of PPARg:RXRa (P37231 29-505, chain 1 of 2): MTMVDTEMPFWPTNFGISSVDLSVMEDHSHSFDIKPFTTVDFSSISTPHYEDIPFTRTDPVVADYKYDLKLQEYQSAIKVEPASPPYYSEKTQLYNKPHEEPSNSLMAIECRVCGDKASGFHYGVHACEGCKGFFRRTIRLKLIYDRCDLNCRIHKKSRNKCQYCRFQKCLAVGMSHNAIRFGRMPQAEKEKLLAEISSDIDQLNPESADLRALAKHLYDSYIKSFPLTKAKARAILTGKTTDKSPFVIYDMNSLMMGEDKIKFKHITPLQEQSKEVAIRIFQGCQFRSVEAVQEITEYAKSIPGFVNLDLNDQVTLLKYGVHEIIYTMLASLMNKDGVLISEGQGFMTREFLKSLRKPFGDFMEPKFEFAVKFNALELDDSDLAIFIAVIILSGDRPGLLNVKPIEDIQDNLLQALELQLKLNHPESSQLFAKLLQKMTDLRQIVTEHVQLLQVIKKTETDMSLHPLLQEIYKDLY
Sequence of PPARg:RXRa (P19793 whole entry, chain 2 of 2): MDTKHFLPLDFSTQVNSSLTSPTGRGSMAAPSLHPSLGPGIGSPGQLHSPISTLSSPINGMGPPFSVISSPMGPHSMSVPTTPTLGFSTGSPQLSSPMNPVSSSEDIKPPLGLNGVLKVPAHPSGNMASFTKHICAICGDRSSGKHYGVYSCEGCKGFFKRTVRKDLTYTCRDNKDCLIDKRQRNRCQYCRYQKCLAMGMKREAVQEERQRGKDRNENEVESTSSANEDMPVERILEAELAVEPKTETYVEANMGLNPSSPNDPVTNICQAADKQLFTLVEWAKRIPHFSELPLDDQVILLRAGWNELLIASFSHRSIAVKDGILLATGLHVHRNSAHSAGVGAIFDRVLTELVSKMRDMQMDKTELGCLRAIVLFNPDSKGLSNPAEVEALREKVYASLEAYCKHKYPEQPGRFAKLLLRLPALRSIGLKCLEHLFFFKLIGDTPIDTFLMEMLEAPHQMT
Consider B1, for which the binding signal was -0.53 PBM z-score against 500 random probes.

Turning to B2, the binding signal is 0.17 PBM z-score against 500 random probes.

For the molecule B3, the binding signal is 0.35 PBM z-score against 500 random probes. As to B4, the binding signal was 0.12 PBM z-score against 500 random probes. The figure for B5 is 0.35 PBM z-score against 500 random probes. Consider B6, for which the binding signal is -0.13 PBM z-score against 500 random probes.

For the molecule B7, the binding signal was -0.23 PBM z-score against 500 random probes. As for B8, the binding signal is 14.4 PBM z-score against 500 random probes. The figure for B9 is 14.2 PBM z-score against 500 random probes. Consider B10, for which the binding signal is 0.09 PBM z-score against 500 random probes. The figure for B11 is 0.38 PBM z-score against 500 random probes. The figure for B12 is 12.2 PBM z-score against 500 random probes; for B13 it is 12 PBM z-score against 500 random probes. On to B14, for which the binding signal is 11.6 PBM z-score against 500 random probes. On to B15, for which the binding signal was 0.05 PBM z-score against 500 random probes. With B16 the figure was -0.27 PBM z-score against 500 random probes; with B17, 12.2 PBM z-score against 500 random probes.

In the case of B18, the binding signal was 12.2 PBM z-score against 500 random probes. With B19 the figure was 12.2 PBM z-score against 500 random probes; with B20, -0.18 PBM z-score against 500 random probes; with B21, 0.31 PBM z-score against 500 random probes. With B22 the figure was -0.09 PBM z-score against 500 random probes; with B23, -0.29 PBM z-score against 500 random probes; with B24, 11.7 PBM z-score against 500 random probes. With B25 the figure was -0.66 PBM z-score against 500 random probes; with B26, -0.05 PBM z-score against 500 random probes; with B27, 0.42 PBM z-score against 500 random probes. On to B28, for which the binding signal is -0.16 PBM z-score against 500 random probes.

Take B29: the binding signal was 0.3 PBM z-score against 500 random probes. The figure for B30 is 12.4 PBM z-score against 500 random probes; for B31 it is -0.21 PBM z-score against 500 random probes; for B32 it is -0.38 PBM z-score against 500 random probes.
